Positions count from the first letter of the chain named. Names and notes keep the numbering of the source.
B1: C33B54 (antibody, IgG1, V domains shown)
VH: QVQLQQSGPGLVKPSQTLSLTCAISGDSVSSNSAAWNWIRQSPSRGLEWLGRTYYRSKWYNDYAVSVRSRITINPDTSKNQFSLQLNSVTPEDTAVYHCARETMFRGLMDYWGQGTLVTVSS
VL: SYVLTQPPSVSVAPGQTARITCGGSNIGSKSVHWYQQKPGQAPVMVVYDDSDRPSGIPERFSGSNSGNTATLTISRVEAGDEADYYCQVWDSSSDVVFGGGTKLTVL
notes: huIgG1 F405L; also called C33F59; C33H44/C33L10
B2: C33B96 (antibody, IgG1, V domains shown)
VH: EVQLVESGGGLVQPGGSLRLSCAASGFTFSSYWMTWVRPAPGKGLEWVANIKRDGGEKYYVDSVKGRFTISRDNAANSLYLQMNSLRVEDTAVYYCARPFYDHFDYWGQGTLVTVSS
VL: SYVLTQPPSVAVAPGQTARITCGGSNIGKISVHWYQQKAGQAPVLVVHDDRARPSGIPERLSGSNSGTTATLTISRVEVGDEADYYCQVWNSSSVHPVFGGGTKLTVL
notes: huIgG1 F405L; also called C33F101; C33H99/C33L37
B3: C33B107 (antibody, IgG1, V domains shown)
VH: EVQLLESGGGLVQPGGSLGLSCAASGFTFSGYAMSWVRQAPGKGLNWVSAIDYSGNDTYYADSVKGRFTISRDNSKNTLYLQMNSLRAEDTAVYYCAKESQLLHGLFEHWGQGILVTVSS
VL: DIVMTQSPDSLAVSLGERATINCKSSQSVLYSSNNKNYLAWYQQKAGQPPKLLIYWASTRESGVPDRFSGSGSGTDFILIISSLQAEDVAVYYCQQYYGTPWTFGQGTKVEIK
notes: huIgG1 F405L; also called C33F112; C33H68/C33L17
B4: C33B89 (antibody, IgG1, V domains shown)
VH: B1 VH with V65L, R68Q, H98Y, T103V, M104A, F105V, R106A, G107A, L108S, M109F
VL: SYVLTQPPSVSVAPGQTARITCGGNNIGSKSVHWSQQKPGQAPVLVVYDDSDRPSGIPERFSGSNSGNTATLTISRVEAGDEADYYCQVWDSNSDHVVFGGGTKLTVL
notes: huIgG1 F405L; also called C33F94; C33H90/C33L51
B5: C33B88 (antibody, IgG1, V domains shown)
VH: QVQLVQSGSELKKPGASVKVSCKASGYTLTRSAMNWVRQAPGQGLEWMGWINTNTGNPTYAQGFTGRFVFSLDTSVNTAYLLISSLKTEDTAVYYCASDILPGYHEDYWGQGTLVTVSS
VL: QSALTQPASVSGSPGQSITISCTGINSDVGSYDLVSWYQQHPGKAPKLLIYDGSERPSGVFGRFSGSKSDNTTSLTISGLQAEDEAAYYCCSYEVTTTYVVFGGGTKLTVL
notes: huIgG1 F405L; also called C33F93; C33H88/C33L61
B6: C33B909 (antibody, V domains shown)
VH: EVQLVESGGGLVQPGRSLRLSCVASGFTFDDYAIHWVRQAPGKGLEWVSGLSWNGGNIGYADSVKGRFTISRDNAKNSLYLQMNSLKTEDTAFYYCTKDTPYGDYFDYWGQGTLVTVSS
VL: DIQMTQSPSSVWASVGDRVTITCRASQGISSWLAWYQQQPGKAPNLLIYRSSSLQSGVPSRFSGSGSGTDFTLTISSLQPEDFATYYCQQDNSFPYTFGQGTKLEIK
notes: OMNIMouse-derived anti-CD33 mAb; same V regions as C33B901; The OMNIMouse mAbs were cloned into both IgG1 and IgG4 PAA; also called C33H249/C33L115
B7: C33B910 (antibody, V domains shown)
VH: B6 VH with V23A, A24G, M83L, T97A, T100S
VL: B6 VL with V11E, Q39K, N45K, R50G, S51A, L54W
notes: OMNIMouse-derived anti-CD33 mAb; same V regions as C33B902; also called C33H250/C33L116

The binders below were run against T1, Cyno CD33 full length, expressed on HEK293F cells (cynomolgus monkey) (assay: flow cytometry, HEK293F cells expressing cyno CD33).
T1 construct: HEK293F cells transduced with lentivirus containing full length cyno CD33 (Genbank XP_005590138.1); also called cyCD33
Method: (§1) OMNIRat antibodies identified via immunization, v-region cloned and subsequently expressed and purified were characterized further for binding to CD33 expressing cells and binding to recombinant antigens. The purified antibodies were assessed for binding to stably transfected HEK293F cells expressing human CD33 or cyno CD33 (generation described above) along with the parental HEK293F as negative control. Cells were harvested from tissue culture flasks using non-enzymatic dissociation buffer (Thermo Scientific). The flasks were rinsed twice with PBS and dissociation buffer was added to the flask, and the flask was incubated for 10 minutes at 37° C. until the cells became non-adherent. The cells were centrifuged at 300 g for 5 minutes and resuspended at 1.0×10⁶ cells/ml in staining buffer (Becton Dickinson; Franklin Lakes, NJ). 50,000 cells/well of each cell type was plated in 50 μl of staining buffer in round bottom plates (Becton Dickinson). […] 100 μl staining buffer was added to all wells of each plate, the plates were spun at 300 g for 5 min, the buffer was removed, 200 μl staining buffer was added to all wells of each plate, the plates were spun at 300 g for 5 min, and the buffer was removed. 50 μl of 2 μg/ml of Goat-anti-human Fc AF647 secondary antibody (Jackson Immunoresearch; West Grove, PA) was added to all wells of the plates, and the plates were incubated for 30 min at 4° C. 100 μl staining buffer was added to all wells of the plates, the plates were spun at 300 g for 5 min, and the buffer was removed. 200 μl running buffer (running buffer is Staining buffer, 1 mM EDTA, 0.1% Pluronic Acid) was added to all wells of the plates, the plates were spun at 300 g for 5 min, and the buffer was removed. 30 μl running buffer containing Sytox Green live/dead dye (ThermoFisher) was added to all wells with cells and the plates were read on an iQue IntelliCyt flow cytometer. Cells were gated on forward vs. side scatter to eliminate debris, then on singlets and then on live cells which excluded the Sytox stain. Antibody binding was assessed by the mean fluorescence intensity in the AF647 channel.
For B1, the “MFI at 0 nM mAb (background)” value was 28800 MFI, the “MFI at 0.6 nM mAb” value was 38100 MFI and the “MFI at 6 nM mAb” value was 43000 MFI. The “MFI at 60 nM mAb” value was 50500 MFI. With B2 the “MFI at 0 nM mAb (background)” value was 86.3 MFI, the “MFI at 0.6 nM mAb” value was 11600 MFI and the “MFI at 6 nM mAb” value was 20100 MFI. For the same binder, the “MFI at 60 nM mAb” value was 37300 MFI. For B3, the “MFI at 0 nM mAb (background)” value was 55.1 MFI, the “MFI at 0.6 nM mAb” value was 36800 MFI and the “MFI at 6 nM mAb” value was 47800 MFI. The “MFI at 60 nM mAb” value was 50300 MFI. For B4, the “MFI at 0 nM mAb (background)” value was 113 MFI, the “MFI at 0.6 nM mAb” value was 23300 MFI and the “MFI at 6 nM mAb” value was 34200 MFI. For the same binder, the “MFI at 60 nM mAb” value was 47300 MFI. With B5 the “MFI at 0 nM mAb (background)” value was 90.1 MFI, the “MFI at 0.6 nM mAb” value was 43900 MFI and the “MFI at 6 nM mAb” value was 43900 MFI. The “MFI at 60 nM mAb” value was 50400 MFI.

The binders below were run against T2, Human CD33 full length, expressed on HEK293F cells (human, UniProt P20138 18-364) (assay: flow cytometry, HEK293F cells expressing human CD33).
T2 construct: HEK293F cells transduced with lentivirus containing full length human CD33; also called huCD33
T2 sequence (P20138 18-364 limits assumed): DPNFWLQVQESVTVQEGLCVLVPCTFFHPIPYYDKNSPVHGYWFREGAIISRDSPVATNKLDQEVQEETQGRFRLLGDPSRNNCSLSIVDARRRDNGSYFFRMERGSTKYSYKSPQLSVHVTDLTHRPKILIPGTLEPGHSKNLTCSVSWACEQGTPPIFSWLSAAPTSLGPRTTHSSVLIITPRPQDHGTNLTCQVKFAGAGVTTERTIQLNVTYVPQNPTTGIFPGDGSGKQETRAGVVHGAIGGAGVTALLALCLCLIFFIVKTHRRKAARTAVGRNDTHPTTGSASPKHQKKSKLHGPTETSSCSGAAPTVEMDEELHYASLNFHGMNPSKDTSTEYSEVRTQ
Method: as §1
In the case of B1, the “MFI at 0 nM mAb (background)” value is reported as 61.3 MFI, the “MFI at 0.6 nM mAb” value is reported as 3770 MFI and the “MFI at 6 nM mAb” value is reported as 27500 MFI. For the same binder, the “MFI at 60 nM mAb” value was 148000 MFI. With B2 the “MFI at 0 nM mAb (background)” value was 55.2 MFI, the “MFI at 0.6 nM mAb” value was 188000 MFI and the “MFI at 6 nM mAb” value was 476000 MFI. For the same binder, the “MFI at 60 nM mAb” value was 476000 MFI. In the case of B3, the “MFI at 0 nM mAb (background)” value is reported as 86.5 MFI, the “MFI at 0.6 nM mAb” value is reported as 161000 MFI and the “MFI at 6 nM mAb” value is reported as 340000 MFI. For the same binder, the “MFI at 60 nM mAb” value was 375000 MFI. B5 was tested, and the “MFI at 0 nM mAb (background)” value was 94.8 MFI, the “MFI at 0.6 nM mAb” value was 274000 MFI and the “MFI at 6 nM mAb” value was 481000 MFI. The “MFI at 60 nM mAb” value was 393000 MFI.

These binders were tested against T3, Cyno CD33 full length (cynomolgus monkey) (assay: flow cytometry on HEK293F cells expressing cyno CD33).
T3 construct: also called cyCD33
Method: as §1, with “The” for “OMNIRat antibodies identified via immunization, v-region cloned and subsequently expressed and purified were characterized further for binding to CD33 expressing cells and binding to recombinant antigens. The”
(§2) The OmniMouse panel (8 mAbs total) was generated separately and characterized further for binding to cells.
With B6 the “MFI at 0 nM (background)” value was 124 MFI, the “MFI at 0.6 nM” value was 116 MFI and the “MFI at 6 nM” value was 135 MFI. The “MFI at 60 nM” value was 180 MFI. With B7 the “MFI at 0 nM (background)” value was 176 MFI, the “MFI at 0.6 nM” value was 117 MFI and the “MFI at 6 nM” value was 135 MFI. For the same binder, the “MFI at 60 nM” value was 202 MFI.

The binders below were run against T4, Human CD33 full length (human, UniProt P20138 18-364) (assay: flow cytometry on HEK293F cells expressing human CD33).
T4 construct: also called huCD33
T4 sequence (P20138 18-364 limits assumed): as above
Method: as §1, with “The” for “OMNIRat antibodies identified via immunization, v-region cloned and subsequently expressed and purified were characterized further for binding to CD33 expressing cells and binding to recombinant antigens. The”
as §2
For B6, the “MFI at 0 nM (background)” value was 191 MFI, the “MFI at 0.6 nM” value was 154 MFI and the “MFI at 6 nM” value was 170 MFI. The “MFI at 60 nM” value was 176 MFI. B7 was tested, and the “MFI at 0 nM (background)” value was 155 MFI, the “MFI at 0.6 nM” value was 151 MFI and the “MFI at 6 nM” value was 183 MFI. The “MFI at 60 nM” value was 214 MFI.

These binders were tested against T5, Cyno CD33 ECD-HSA (cynomolgus monkey) (assay: ProteOn SPR, mAb captured by anti-human Fc, 1:1 Langmuir fit).
T5 construct: Cyno CD33 extracellular domain fused to monomeric human serum albumin and a six-histidine tag; also called C33W1
Method: (§3) The panel of mAbs was then further characterized for full affinity analysis as well as epitope binning. The binding of anti-CD33 mAbs to recombinant human CD33 ECD-HSA (C33W2) and cyno CD33 ECD-HSA (C33W1) was measured by ProteOn SPR (Bio-Rad). […] Different mAbs were captured on the anti-human Fc IgG surface at 0.25 or 0.5 μg/ml (160-300 RU) in vertical ligand orientation, with the 6th ligand channel as no ligand surface control. Human and cyno CD33-HSA proteins at 0.3 μM concentration in 3-fold dilution series of 5 concentrations flew in as analyte to bind to captured mAbs in the horizontal orientation. A buffer sample was also injected in the 6th channel to monitor the dissociation of captured mAb and baseline stability. […] The raw biding data were processed by double referencing after subtracting the response data from: 1) the inter-spot to correct for the non-specific interactions between the Ag and the empty chip surface; 2) the buffer channel to correct for baseline drifting due to the dissociation of captured mAb surface over time. The processed data at all antigen concentrations for each mAb were globally fit to a 1:1 simple Langmuir binding model to extract estimates of the kinetic (kₒₙ, koff) and affinity (Kd) constants.
B1 was tested, and the Kd was 0.484 nM, the koff was 0.000637 s⁻¹ and the kon was 1.32e+06 M⁻¹ s⁻¹. B3 was tested, and the Kd was 0.212 nM, the koff was 7.01e-05 s⁻¹ and the kon was 331000 M⁻¹ s⁻¹. B4 was tested, and the Kd was 0.76 nM, the koff was 0.000201 s⁻¹ and the kon was 265000 M⁻¹ s⁻¹.

These binders were tested against Human CD33 ECD-HSA (human) in the same assay as above.
Chain of Human CD33 ECD-HSA (human) (chain, as listed by the source): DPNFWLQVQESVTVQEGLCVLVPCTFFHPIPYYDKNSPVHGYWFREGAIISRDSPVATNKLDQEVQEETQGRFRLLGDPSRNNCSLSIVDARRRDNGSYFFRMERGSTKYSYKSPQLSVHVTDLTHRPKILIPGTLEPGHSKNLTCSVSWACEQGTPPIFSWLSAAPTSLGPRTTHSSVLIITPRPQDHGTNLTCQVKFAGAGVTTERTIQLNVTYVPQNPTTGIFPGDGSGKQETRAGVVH
Method: as §3
B2 showed a Kd of 1.92 nM, a koff of 0.000436 s⁻¹ and a kon of 226000 M⁻¹ s⁻¹.

What follows are binders tested against Human CD33 ECD-HSA (human) (assay: SPRi off-rate screen (IBIS MX96), mAb captured by anti-human Fc; column head prints KD).
Method: (§4) To begin assessing the biophysical binding properties of the purified mAbs an off-rate screen was performed. 76 OMNIRat anti-CD33 mAbs were tested for binding to recombinant human CD33 ECD-HSA (C33W2) and cyno CD33 ECD-HSA (C33W1) proteins (Janssen production) and the off-rate was measured by IBIS MX96 SPRi array platform (Carterra; Newton, PA). […] The sensor chip was transferred to the Continuous Flow Microspotter (CFM) unit to capture each anti-CD33 mAb at 10 μg/ml for 10 minutes. Binding was measured on IBIS SPRi by single cycle kinetics without regeneration. […] The raw binding data (.trix file format) were referenced and aligned using SprintX software (Wasatch, Ver 1.9.3.2), then exported (.ibmx file format) to Scrubber software (Ver. 2.0) for 1:1 binding kinetic analyses (Wasatch, version 2.0.0.33) to extract the koff results.
Binder B1 has a koff of 0.0248 s⁻¹. B2 was tested, and the koff was 0.000228 s⁻¹. B3 was tested, and the koff was 0.00444 s⁻¹. With B4 the koff was 0.00811 s⁻¹. Binder B5 has a koff of 0.000825 s⁻¹.

What follows are binders tested against T5, Cyno CD33 ECD-HSA (assay: SPRi off-rate screen (IBIS MX96), mAb captured by anti-human Fc; column head prints Cyno CD33 binding KD).
Method: as §4
B1 gave a koff of 0.000135 s⁻¹. Binder B2 has a koff of 0.000819 s⁻¹. With B3 the koff was 0.000135 s⁻¹. Work on B4 yielded a koff of 4.65e-05 s⁻¹. B5 showed a koff of 0.000389 s⁻¹.

Source: patent publication US20230322924A1 (Janssen / Centocor, published 2023)
